This is an account of results in the nanobody polyreactivity screen of Harvey et al. (2022).

This series can be described thus: yeast display, Sf9 membrane polyspecificity reagent, FACS + sequencing; frameworks hold sequencing errors. In short, it runs like this: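 After 36–48 hours of galactose induction, yeast (Saccharomyces cerevisiae BJ5465) displaying a synthetic nanobody library were stained at 4 °C for 1 hour with 10% biotinylated, detergent-solubilized Sf9 membrane reagent. Streptavidin microbeads enriched the stained cells before FACS sorting into low and high (top ~1%) gates on anti-HA and streptavidin fluorescence. Each clone's polyreactivity label reflects its gate of origin.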
In the case of “QVQLEESGRGLVQAGGSLRLSCAASVSTCCENAMGWYRQAPGKERELVAAISWGGGSKYYADSVKGRFTISRDNAMNTVYLQMNSLKQEDTAVYYCNADVFDDYGYFESDYWGQGTQVTVSS”, the “polyreactivity (PSR sort gate)” value is “low polyreactivity”.
As for “QVQLEESGVGLVQAGGSLRLSCAASGFIFSFYAMGWSRQAPGKERELVAVISKSGGSTYYADSVKGRFTISRDNAKNTVYLQMNSLKPEDTAVYFCAADSTVGRLLSFDYWGQGTQVTVSS”, the “polyreactivity (PSR sort gate)” value is recorded as “low polyreactivity”.
As to “QVQLEESGVGLVQAGGSLRLSCAASGSIYGYAMGWYRQSPGKQRELVASISSGGSTYYADSVKGRFTISRDNAKNSVYLQMNSLKPEDTAVYYCAARAYSYQAQSYYWGQGTQVTVSS”, the “polyreactivity (PSR sort gate)” value is reported as “high polyreactivity”.
As for “QVQLEESRGGLVHAGGSLRLSCAASGYSFYIYAMGWYRQAPGKERELVAAISSSGGRTYYADSVKGRFTISRDNAKNTVYLQMNSLKPEDTAVYYCNALYRYGWLYAPKYNSCGQGTQVTVSS”, the “polyreactivity (PSR sort gate)” value is “high polyreactivity”.
“QVQLEESRGGLVQAGGSLRLICAASGFTFRQNAMGWYRQAPGKERELVAAISRGGGGTHYADSVKGRFSISRDNAKNTVYLQMNSLKPEDTAVYYCAKRRYPTFVVPVYYWGQGTQVTVSS”: the “polyreactivity (PSR sort gate)” value is reported as “high polyreactivity”.
Then “QVQLEESVGGLVQAGVSLRLSCAASGRFFYFYAMGWYRQAPAKERELVASISSGGITIYADSVKGRFTISRDNSKYTVYLQMYSLKREDTAVYYCNAGYASGKYSGVYLYGYLGQGTQVTVSS”, with “low polyreactivity”; and “QVQLEETGGGLVQAGGSLPLSCAASGRTFRFYTMGWYRQAPGKERELVAVISNGGSTNYADSVKGRFTISRDNANTTVYLQMNSLKPEDTAVYDCAAGWVWSGNDYYYWGQGTQVTVSS”, with “low polyreactivity”; and “QVQLEETGGGLVQAGGSLRLSCAASGLTFGVYAMGRYRQAPGKEMELVAAITWRGDTTYYADSVKGRFTISRYNAKNTVYLQMNSLKPEDSAVYYCAKDVPYRRVRSEYWGQGTQVTVSS”, with “low polyreactivity”.
Then “QVQLESGGGLVQAGGRLRLSCAASGSIIDQYVMGWYRQAPGKERELVAAISRGGRTYYADSVKGRFTISRDNAKNTVYLQMNSLKPVDSSVYYCAARSDVRGFDYWGQGTQVTVSS”, with “low polyreactivity”; and “QVQLESGGGLVQAGGSLRLRCEASGITFQLYDMGWYRQAPGKERELVAAINSSGGSTYYADSVKGRFTISRDNAKNTVYLQMNSLKPEDTAVYYCNVGFAPVTNDQPVSTEYDYWGQGTQVTVSS”, with “low polyreactivity”; and “QVQLESGGGLVQAGGSLRLSCAASGITFQLYDMGWYRQAPGKERELVAAINSSGGSTYYADSVKGRFTISRDNAKNTVYLQMNSLKPEDTAVYYCNVGFAPVTNDQPVSTEYDYWGQGTQVTVSS”, with “low polyreactivity”.
In the case of “QVQLEVSGGGLVQAGGSIRLSCAASGSTFGGNAMGWYRQAPRKERELVAAIDSGGSTYADSVKGRFTISRDNAKNTVYLQMNSLKPEDTAVYYCADWFSAYYSLYRHRGYWGQGTQVTVSS” it was “low polyreactivity”.
For the sequence “QVQLGESAGGLVQAGGSLRLSCAATGRTFRWYTMGWYRQAPGKERELVAGIRSTGGSTYYADSVKGRFTISRDNAKNTVYLQMNSLKPEDTEVYYCAIVTLTSRYASYYYWGQGTQVTVSS”, the “polyreactivity (PSR sort gate)” value is on record as “high polyreactivity”.
Then “QVQLGESGEGLVQAGGSLRLSCAASGFTCGYYTMGLYRQAPGKERELVAAISSSGGRTYYADSVKGRFTISRDNAKNSVYFQMNSLKPEDTAVYYCNVYYISTDLYYWGQGTQVTVSS”, with “high polyreactivity”.
In the case of “QVQLGESGGGIVQAGGSLRLSCAASGRTLQQYVMGWYRQAPGKETELVAAITRGGRTNYADSVKGRFTISRDNAKNTVYLQRNSLKPEDTAVYYCNSRYPSRLVAWLDYWGQGTQVTVSS” it was “low polyreactivity”; in that of “QVQLGESGGGLVPAGGSLRLSCAASGGTFKTNAMGWYRQAPGKERELVAAITGSGTSTYYADSVKGRFTISRDNAKNTVYLHMNSLKPEDTAVYYCAADNLYHPGIGDDYWGQGTQVTVSS”, “low polyreactivity”.
Take “QVQLGESGGGLVQAGGCLRLSCAASGSIFAANAMGWYRQAPGKERELVAAINSGDSTNYADSVKGRFTISRDYAKKTVYLQMNSLKPEDTAVYYCARGLEERYDYWGQGTQVTVSS”: the “polyreactivity (PSR sort gate)” value is listed as “low polyreactivity”.
For the sequence “QVQLGESGGGLVQAGGSLRLICAASGSIFDQYAMGWSRPAPGKERELVAAIDTSGGSTYYADSVKGRFTISRDNAKYTVYLQMNSLKPEDTAVYYCAARGDGTFYEGYDYWGQGTQVTVSS”, the “polyreactivity (PSR sort gate)” value was “low polyreactivity”.
In the case of “QVQLGESGGGLVQAGGSLRLSCAASGFIFFSNAMGWYRQAPGKERELVAAIRSGGSTNYADSVKGRFTISRDNAKNTVYLQMNSQKPEDTAVYYCNVLWLRSRRKYDYWGQGTQVTVSS”, the “polyreactivity (PSR sort gate)” value is “low polyreactivity”.
In the case of “QVQLGESGGGLVQAGGSLRLSCAASGFTFRIYTMGWYRQAPGKERELVAAISSRGGSTYYADSVKGRFTISRDNAKNTVYLQMNSLKPEDTAVYYCAASGRVYSSGYDYWGQGTQVTVSS” it was “high polyreactivity”; in that of “QVQLGESGGGLVQAGGSLRLSCAASGNTFYRNAMGWYRQAPGKERELVAAIDYSAGSTYYADCVKGRFTISRDNAKNTVYLQMHSLKPEDTADDYCAAVARTSRGRRYYSWGQGTQVTVSS”, “low polyreactivity”.
Regarding “QVQLGESGGGLVQAGGSLRLSCAASGRIFSAYAMGWSRQEPGKERELVAAITRSGGSTYYADSVKGRFTISRDNAKNTVYLQMNSLKPEDTAVYYCAAGYFVSDAWSWYHWVEHGYWGQGTQVTVSS”, the “polyreactivity (PSR sort gate)” value is on record as “high polyreactivity”.
In the case of “QVQLGESGGGLVQAGGSLRLSCAASGRISGYAMGWYRQAPGKERELVAAISKSAARTYYADSVKGRFTISRDNAKNTVYLQMNSLKPEDTAVYYCAADKPYRYDYWGQGTQVTLSS” it was “high polyreactivity”; in that of “QVQLGESGGGLVQAGGSLRLSCAASGRNFSTYTMGWYRQATWKERELVASISWSGVRTRYADSVKGRFTISRDNAKNTVYLQMNSLKPEDTAVYYCAAVVPYYYRSPSNHMGYWGQGTQVTVSS”, “high polyreactivity”; in that of “QVQLGESGGGLVQAGGSLRLSCAASGRTFSYYAKGWNRPAPGKERELVGAISSTGGSTYYADSVKGRFTISRDNAKNTVYLQMNSLKPEDTAVYYCAARWYVLYYRGGYCGQGTQVTVSS”, “low polyreactivity”.
Then “QVQLGESGGGLVQAGGSLRLSCAASGRTFVSNAMGWYRPAPGNERELVAAITQSGGSTYADSVKGRFTISRDNAKNTVYLQMNSLKPEDTAVYYCNADHAFVGTYYERHDYWGQGTQVTVSS”, with “low polyreactivity”; and “QVQLGESGGGLVQAGGSLRLSCAASGSIFFLYAMGWYRQAPGKERELVAAISLSTGNTYYADSVKGRFTISRDNAKNTVYVQKNSLKPEDTAVYYCAAEDYWSAYYWGQGTQVTVSS”, with “high polyreactivity”; and “QVQLGESGGGLVQAGGSLRLSCAASGSIFGSYAMGWYRQATGKERELVAAISYSGGTTYYADSVKGRFTNSRDNAKNTVYLQMNSLKPEDTAVYYCNAPVAYEREYEYWGQGTQVTVSS”, with “low polyreactivity”.
Turning to “QVQLGESGGGLVQAGGSLRLSCAASGSIFVPYAMGWYRQAPGKERELVAVITSGGSTYYADSVKGRFTISRDNAKNTVYLQMNSLKPEDTAVYYCYADLYYVWSTLSQFDYWGQGTQVTVSS”, the “polyreactivity (PSR sort gate)” value is “low polyreactivity”.
Then “QVQLGESGGGLVQAGGSLRLSCAASGSIFYGYAMGWYRHAPGKERELVAAITRDGSTNYADSVKGRFTISLDNAKNTVYLQMNSLKPEDTAVYYCAADTRSRRLSLVRRDYWGQGTQVTVSS”, with “high polyreactivity”; and “QVQLGESGGGLVQAGGSLRLSCAASGSIVDVYAMGWYRPAPGKERELVADITSGDITNYADSVKGRFTISRDNAKNTVYLQMNSLKPEDTAVYYCATPLKLAYSPKLDYWGQGTQLTVSS”, with “low polyreactivity”.
“QVQLGESGGGLVQAGGSLRLSCAASGSTFAYNERGWYSQAPGHERELVADIRSGGNTNYADSVKGRFTISRDNAKNTVYLQMPSLKPEDTAVYYCATDGYRIDVYHPDYRYDYWGQGTQVTVSS”: the “polyreactivity (PSR sort gate)” value is “low polyreactivity”.
As for “QVQLGESGGGLVQAGGSLRLSCAASGSTFIDYAMGWYRQAPGKERELVAAITNGGNTKYADSVKGRFTISRDNAKNTVYLQMNSLKPEDTAVYYCAKYYYTSIVGYDSWGQGTQVTVSS”, the “polyreactivity (PSR sort gate)” value is “low polyreactivity”.
In the case of “QVQLGESGGGLVQAGGSLRLSCAASGSTFVVYAMGWYRQAPGKERELVAAITRGASTTYADSVKGRFTISRDNAKNTVYLQMNSLKPEDTAVYYCAAAVAYEYLQSAYTRYYYWGQGTQVTVSS” it was “high polyreactivity”.
Then “QVQLGESGGGLVQAGGSLRLSCAASGSTFWPYAMGWYRQAPGKERELVATIRWSGGSTSYADSVKGRFTISRDNAKNTVYLQMNSVKPEDTAVFYCAARDFHYYRFKTYGYWGQGTQVTVSS”, with “high polyreactivity”; and “QVQLGESGGGLVQAGGSLRLSCAASGSTFYVYAQGWYRPAPGKERELVAAISSSGARTYYADSVKGRFTISRDNAKNTVYLQMNCLKPDDTAVLYCAARRYYKFYYWGHGTQVTVSS”, with “high polyreactivity”; and “QVQLGESGGGLVQAGGSLRLSCAASGSTIRRYTMGWYRQAPGKERELDAAITGSGGSTYYADSVKGRFTISRDNAKNTVYLQMNSLKPEDPAVYYCAAPPWRRIVGGIYDYWGQGTQVTVSS”, with “high polyreactivity”.
In the case of “QVQLGESGGGLVQAGGSLRLSCAASGYTFRPYAMGGYRQAPGKESELVAAISSGDSTNYADSVKGRFTISRDNAKNTVYLQMNSLNPEDTAVYYCAARRVGGGFYTWRNPAYEYWGQGTQVTVSS” it was “high polyreactivity”; in that of “QVQLGESGGGLVQAGGSLRLSCAGSGRTFVRSARGWSSQAPGKARELVARITSRGTSTYYADSVKGRFTSSRDNAKNTDYLLMNSLNPEDNAVYYCNNVRTFRDNSRYDYWGQGTHVTVSS”, “low polyreactivity”; in that of “QVQLGESGGGLVQAGGSLSLSCAASGFSISWYVMGWYRLAPGKERELVAAISWSGDRTYYADSVKGRFTISRDNAKNTVYLQMNSLKPEDTAVFYCAARRWRKYFSGYNYWGQGTQVTVSS”, “high polyreactivity”.
For “QVQLGESGGGLVQAGGSLSLSCAASGNTFVSNAMGWYRQATGKERELVATISSGAHTYYADSVKGRFTISRDNAKNTVYLQMKSLKPEDTAVYYCASTSYGYWVGYIPEVDFWGQGTQVSVSS”, the “polyreactivity (PSR sort gate)” value was “low polyreactivity”.
